From patent US20230280353A1, “DETECTION SYSTEM OF INTERACTION BETWEEN KNOWN MOLECULES AND PROTEINS BASED ON COVALENT CONNECTION AND IDENTIFICATION OR VERIFICATION METHOD THEREOF” (SHANGHAI JIAO TONG UNIVERSITY, priority 2021, published 2023)

T1: VacB (UniProt P21499 1-813)
T1 sequence: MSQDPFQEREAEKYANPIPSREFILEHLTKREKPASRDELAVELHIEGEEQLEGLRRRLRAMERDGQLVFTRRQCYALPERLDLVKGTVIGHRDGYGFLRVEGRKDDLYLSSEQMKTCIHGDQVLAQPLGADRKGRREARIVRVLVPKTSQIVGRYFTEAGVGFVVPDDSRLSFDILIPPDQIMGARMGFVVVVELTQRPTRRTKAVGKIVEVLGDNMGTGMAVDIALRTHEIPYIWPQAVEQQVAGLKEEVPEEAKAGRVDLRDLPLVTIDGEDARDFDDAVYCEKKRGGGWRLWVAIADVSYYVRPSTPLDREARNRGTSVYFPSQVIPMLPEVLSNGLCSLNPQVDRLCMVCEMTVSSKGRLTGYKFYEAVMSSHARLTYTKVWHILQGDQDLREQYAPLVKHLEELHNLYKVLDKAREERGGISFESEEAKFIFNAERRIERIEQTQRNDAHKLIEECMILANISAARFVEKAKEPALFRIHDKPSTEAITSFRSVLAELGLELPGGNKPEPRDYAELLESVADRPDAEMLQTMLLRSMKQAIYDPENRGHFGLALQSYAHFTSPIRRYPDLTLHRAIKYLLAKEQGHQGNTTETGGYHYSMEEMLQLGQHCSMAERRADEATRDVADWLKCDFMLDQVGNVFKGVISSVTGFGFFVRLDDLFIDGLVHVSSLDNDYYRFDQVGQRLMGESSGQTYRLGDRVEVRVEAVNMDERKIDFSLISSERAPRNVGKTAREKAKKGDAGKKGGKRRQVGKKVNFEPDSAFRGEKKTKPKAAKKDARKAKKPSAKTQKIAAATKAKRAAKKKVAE

T2: VacB, P21499
T2 chain: T1 sequence

T3: DksA, P0ABS1
T3 chain: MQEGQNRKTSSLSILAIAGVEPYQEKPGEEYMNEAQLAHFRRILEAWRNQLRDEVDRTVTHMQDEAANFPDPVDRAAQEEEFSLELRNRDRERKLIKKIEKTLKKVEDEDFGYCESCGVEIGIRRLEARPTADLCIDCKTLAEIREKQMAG

B1: DksA (other)
chain: T3 chain
B2: CobB protein (biotin-modified, with Avi tag) (enzyme)
chain: MLSRRGHRLSRFRKNKRRLRERLRQRIFFRDKVVPEAMEKPRVLVLTGAGISAESGIRTFRAADGLWEEHRVEDVATPEGFDRDPELVQAFYNARRRQLQQPEIQPNAAHLALAKLQDALGDRFLLVTQNIDNLHERAGNTNVIHMHGELLKVRCSQSGQVLDWTGDVTPEDKCHCCQFPAPLRPHVVWFGEMPLGMDEIYMALSMADIFIAIGTSGHVYPAAGFVHEAKLHGAHTVELNLEPSQVGNEFAEKYYGPASQVVPEFVEKLLKGLKAGSIA
notes: also called biotinylated CobB protein
B3: CobB: Biotin-modified CobB protein with Avi tag; has deacetylase activity (protein)
chain: B2 chain
B4: SAm-Pup^E: mutated streptavidin-Pup tetramer, amino acid sequence SEQ ID NO: 5 (protein)
chain: MGAEAGITGTWYNQLGSTFIVTAGADGALTGTYESAVGNAESRYVLTGRYDSAPATDGSGTALGWTVAWRNNYRNAHSATTWSGQYVGGAEARINTQWLLTSGTTEANAWRSTLVGHDTFTRVRPSAASGGGGGSGSHHWGGGGSLTEETDDLLDEIDDVLEENAEDFVRAYVQRGGE
modifications: tetramer; The sequence is synthesized.
B5: CheZ: biotin-modified protein CheZ with Avi tag (protein)
chain: MMQPSIKPADEHSAGDIIARIGSLTRMLRDSLRELGLDQAIAEAAEAIPDARDRLYYVVQMTAQAAERALNSVEASQPHQDQMEKSAKALTQRWDDWFADPIDLADARELVTDTRQFLADVPAHTSFTNAQLLEIMMAQDFQDLTGQVIKRMMDVIQEIERQLLMVLLENIPEQESRPKRENQSLLNGPQVDTSKAGVVASQDQVDDLLDSLGF

Columns and labels:
[1] = system: YTDHF1, YTDHF2, YTDHF3 proteins; test: SPIDER verification (immunoblot) of biotinylated m6A RNA with YTDHF1, YTDHF2, YTDHF3; type: binding; conditions: 0.5 μM biotinylated m6A RNA; GFP antibody
Excerpt: The sequences of YTDHF1-GFP, YTDHF2-GFP and YTDHF3-GFP were constructed on pCDNA3.1 vector and transfected into HEK293T cells with Lipofectamine 2000 (ThermoFisher 118668).
Immunoblot analysis of GFP antibody was used.

[2] = Capture and mass spectrometry identification of m6A RNA interacting proteins; type: binding; conditions: 1 μM bait, HEK293T cell lysate
Method: HEK293T normal cells and SLIAC (Lys/Arg relabeled) cells were cultured and lysed with Thermo Fisher 78501 M-PER® Mammalian Protein Extraction to obtain cell lysates.
The reaction system was prepared as follows: 1 μM biotinylated m6A RNA, 5 μM SAm-Pup^E, 0.5 μM PafA7KR enzyme, 5 mM ATP, 5 mg HEK293T cell lysate or SILAC cell lysate were added, and buffer (50 mM Tris 8.0, 0.5 M NaCl, 20 mM MgCl2, 10% (v/v) Glycerol, 10 mM imidazole) was lysed to 5 ml. The system was incubated at 30° C. for 6h, and biotin agarose beads were added for incubation overnight at 4° C. Wash buffer 1 (8M urea, 50 mM Tris 8.0, 200 mM NaCl, 0.2% SDS), Wash Buffer 2 (8M urea, 50 mM Tris 8.0, 200 mM NaCl, 2% SDS), Wash buffer 3 (8M urea, 50 mM Tris 8.0, 200 mM NaCl), Wash buffer 4 (50 mM Tris 8.0, 0.5 mM EDTA, 1 mM DTT), Wash buffer 5 (50 mM NH4HCO3) were incubated at room temperature for 5 min and centrifuged at 1500 rpm for 4 min. The biotin agarose beads were transferred to a 1.5 mL centrifuge tube, centrifuged in a horizontal centrifuge with 1 mL Wash buffer 5, 1500 rpm for 4 min and washed repeatedly with Wash buffer 5 to obtain the reaction product. Trypsin was lysed and identified by mass spectrometry.

[3] = molecular target: CobB protein (biotin-modified, with Avi tag) (UniProt P75960); test: BLI; series 1000, 500, 250, 125, 62.5 nM; the filing does not say which partner was on the sensor
[4] = molecular target: CobB protein (biotin-modified, with Avi tag) (UniProt P75960); test: BLI; series 1000, 500, 250, 125 nM; the filing does not say which partner was on the sensor
ETHR protein = molecular target: T4, ETHR protein (Mycobacterium tuberculosis, UniProt P9WMC1); type: binding
T4 construct: Flag (C); 6×His (C); made in house; host or cells: E. coli BL21 (DE3), pET28a

[5] = system: CSP series proteins (CSP1, CSP2, CSP3); test: SPIDER verification (Western blot) of c-di-GMP and CSP series short peptides; type: binding; conditions: 2 μM, CSP proteins 5 μM; compared with c-di-GMP without biotinylation
Method: The N-terminal sequences encoding CSP1, CSP2 and CSP3 were all labeled with Flag tags and constructed on PET32a vector, which was fused with thioredoxin for expression. The recombinant vector was transformed into E. coli BL21 (DE3) strain. The CSP1, CSP2 and CSP3 proteins were obtained by adding IPTG and inducing at 37° C. for 4h when OD600 was about 0.6 in 1 L of bacteria medium. The CSP1, CSP2 and CSP3 proteins were purified by nickel column.
After that, PafA7KR (1 μM) and ATP (10 mM) were added into the system and incubated at 30° C. for 6 h. Flag antibody was used for Western blot analysis.

[6] = molecular target: B2; test: BLI; series 7500, 5000, 2500, 1250 nM; the filing does not say which partner was on the sensor
VacB = molecular target: T1, VacB; test: BLI; series 1000, 500, 250, 125, 62.5 nM; the filing does not say which partner was on the sensor
VacB, P21499 = molecular target: T2, VacB, P21499
DksA, P0ABS1 = molecular target: T3, DksA, P0ABS1
[7] = molecular target: CobB interacting proteins found and purified (tested by BLI, FIGS. 8B-8F); test: BLI
VacB and DksA proteins = test: CobB deacetylation of VacB and DksA (Western blot, acetylation antibody); type: biochemical; conditions: VacB and DksA co-incubated with CobB
Method: CobB has the activity of deacetylase. CobB was co-incubated with VacB and DksA proteins, and the acetylation level of protein was detected by Western blot analysis of acetylation antibody.

[8] = Method: The SA-Pup purified from Step 1 was added into Buffer R (50 mM Tris, PH 7.5, 100 mM NaCl, 20 mM MgCl2, 10% (v/v) glycerol) and high salt buffers (50 mM Tris-HCl, PH 8.0, 8 M urea, 15 mM DTT, 1 mM EDTA, PH 8.0) containing 8 M urea, respectively. After mixing, the supernatant was absorbed, and then biotin agarose beads were added to rotate and incubate at room temperature for 1 hour, and then the supernatant was absorbed. The supernatant was detected by SDS-PAGE.
[9] = Biotin binding activity of SAm-Pup^E (SDS-PAGE); conditions: incubated with biotin at room temperature 1 hour
Method: The SAm-Pup^E protein and wild-type streptavidin (SA) purified in step 1 were mixed with biotin (A600078) and incubated at room temperature for 1 hour, and then detected by SDS-PAGE.

CheAs protein = type: binding; conditions: CheZ 0, 0.1, 0.2, 0.4 μM; wild-type CheAs 0.2 μM

Molecule: biotinylated m6A RNA: 5′-terminal biotin-modified m6A RNA, sequence CGUCUCGGCUCGGCUGCU (SEQ ID NO: 8) (5' biotin, m6A modification, chemistry not fully specified)
- protein-SAm-Pup^E complex bands [1]: presence of complex bands only in the presence of biotinylated m6A RNA
- binding proteins obtained by mass spectrometry [2]: YTDHF1, YTDHF2 and YTDHF3

Molecule: RoxA
- Kd [3]: 103 nM
- koff [3]: 0.00124 s⁻¹

Molecule: GldA
- Kd [3]: 59.4 nM
- koff [3]: 0.000295 s⁻¹

Molecule: RraA
- Kd [4]: 24.6 nM
- koff [4]: 0.000201 s⁻¹

Molecule: Nc1nc2c(ncn2[C@@H]2O[C@@H]3COP(=O)(O)O[C@H]4[C@@H](O)[C@H](n5cnc6c(=O)[nH]c(N)nc65)O[C@@H]4COP(=O)(O)O[C@H]3[C@H]2O)c(=O)[nH]1 [c-di-GMP]
- complex bands with excessive non-biotinylated competitor (ETHR protein; excessive non-biotinylated c-di-GMP added to compete with biotinylated c-di-GMP): the complex bands were basically unchanged

Molecule: biotinylated c-di-GMP
- complex band of ETHR and SAm-Pup^E monomer (ETHR protein): the detected complex bands become thicker
- migration of CSP series protein bands [5]: migrated significantly

Molecule: B1
- Kd [6]: 772 nM
- koff [6]: 0.00167 s⁻¹

Molecule: B2
- Kd (VacB): 156 nM
- koff (VacB): 0.00163 s⁻¹
- acetylation level of VacB (IB: Ac-K), with and without CobB (VacB, P21499): Ac-K band clear without CobB, almost gone with CobB; His (VacB) bands alike in both lanes; biotin-CobB band only in the + lane
- acetylation level of protein detected by Western blot analysis of acetylation antibody (VacB, P21499): the acetylation level of a group of proteins added with CobB decreased obviously
- acetylation level of DksA (IB: Ac-K), with and without CobB (DksA, P0ABS1): Ac-K band seen without CobB, not seen with CobB; His (DksA) bands alike in both lanes; biotin-CobB band only in the + lane
- acetylation level of protein detected by Western blot analysis of acetylation antibody (DksA, P0ABS1): the acetylation level of a group of proteins added with CobB decreased obviously
- Kd [7]: 25 to 772 nM

Molecule: B3
- acetylation level of protein (VacB and DksA proteins): decreased obviously

Molecule: B4
- stability of binding to biotin agarose beads [8]: can still bind stably in high salt buffer
- biotin-binding activity [9]: the same biotin-binding activity as wild-type streptavidin

Molecule: B5
- complex bands of CheAs and SAm-Pup^E monomer (CheAs protein): the detected complex bands become thicker
